The source of these data is US20190330665A1.

The target in this test is T7 RNA polymerase (UniProt P00573). As to the kind of experiment: cell-based or functional assay.

For the substance “catalytically-deactivated variant of T7 lysozyme (LysY) (from UniProt P00806 2-151)”, the decrease in basal mNeonGreen expression in exponential phase (PT7:mNeonGreen reporter, PurtA:T7pol biosensor strain) came out at 78%.
